Test results as given in publication PMC5291245 (Nucleic Acids Research, 2016).

Target: His6-SUMO tagged H3.3 (human, UniProt P84243 1-136)
Test: native gel or EMSA

B1: human histone H3.Y (natural protein)
chain: not shown
B1: binds.
